Assay results taken from IntAct's records for PubMed 31515488.

B1: Src kinase-associated phosphoprotein 1 (Homo sapiens), Q86WV1 (parent)
chain: MQAAALPEEIRWLLEDAEEFLAEGLRNENLSAVARDHRDHILRGFQQIKARYYWDFQPQGGDIGQDSSDDNHSGTLGLSLTSDAPFLSDYQDEGMEDIVKGAQELDNVIKQGYLEKKSKDHSFFGSEWQKRWCVVSRGLFYYYANEKSKQPKGTFLIKGYGVRMAPHLRRDSKKESCFELTSQDRRSYEFTATSPAEARDWVDQISFLLKDLSSLTIPYEEDEEEEEKEETYDDIDGFDSPSCGSQCRPTILPGSVGIKEPTEEKEEEDIYEVLPDEEHDLEEDESGTRRKGVDYASYYQGLWDCHGDQPDELSFQRGDLIRILSKEYNMYGWWVGELNSLVGIVPKEYLTTAFEVEER
B2: Gem-associated protein 6 (Homo sapiens), Q8WXD5 (parent)
chain: MSEWMKKGPLEWQDYIYKEVRVTASEKNEYKGWVLTTDPVSANIVLVNFLEDGSMSVTGIMGHAVQTVETMNEGDHRVREKLMHLFTSGDCKAYSPEDLEERKNSLKKWLEKNHIPITEQGDAPRTLCVAGVLTIDPPYGPENCSSSNEIILSRVQDLIEGHLTASQ
B3: Tektin-4 (Homo sapiens), Q8WW24 (parent)
chain: MAQTVPPCELPCKEYDVARNTGAYTSSGLATASFRTSKYLLEEWFQNCYARYHQAFADRDQSERQRHESQQLATETQALAQRTQQDSTRTVGERLQDTHSWKSELQREMEALAAETNLLLAQKQRLERALDATEVPFSITTDNLQCRERREHPNLVRDHVETELLKEAELIRNIQELLKRTIMQAVSQIRLNREHKETCEMDWSDKMEAYNIDETCGRHHSQSTEVQAHPYSTTFQESASTPETRAKFTQDNLCRAQRERLASANLRVLVDCILRDTSEDLRLQCDAVNLAFGRRCEELEDARYKLHHHLHKTLREITDQEHNVAALKQAIKDKEAPLHVAQTRLYLRSHRPNMELCRDAAQFRLLSEVEELNMSLTALREKLLEAEQSLRNLEDIHMSLEKDIAAMTNSLFIDRQKCMAHRTRYPTILQLAGYQ
partner: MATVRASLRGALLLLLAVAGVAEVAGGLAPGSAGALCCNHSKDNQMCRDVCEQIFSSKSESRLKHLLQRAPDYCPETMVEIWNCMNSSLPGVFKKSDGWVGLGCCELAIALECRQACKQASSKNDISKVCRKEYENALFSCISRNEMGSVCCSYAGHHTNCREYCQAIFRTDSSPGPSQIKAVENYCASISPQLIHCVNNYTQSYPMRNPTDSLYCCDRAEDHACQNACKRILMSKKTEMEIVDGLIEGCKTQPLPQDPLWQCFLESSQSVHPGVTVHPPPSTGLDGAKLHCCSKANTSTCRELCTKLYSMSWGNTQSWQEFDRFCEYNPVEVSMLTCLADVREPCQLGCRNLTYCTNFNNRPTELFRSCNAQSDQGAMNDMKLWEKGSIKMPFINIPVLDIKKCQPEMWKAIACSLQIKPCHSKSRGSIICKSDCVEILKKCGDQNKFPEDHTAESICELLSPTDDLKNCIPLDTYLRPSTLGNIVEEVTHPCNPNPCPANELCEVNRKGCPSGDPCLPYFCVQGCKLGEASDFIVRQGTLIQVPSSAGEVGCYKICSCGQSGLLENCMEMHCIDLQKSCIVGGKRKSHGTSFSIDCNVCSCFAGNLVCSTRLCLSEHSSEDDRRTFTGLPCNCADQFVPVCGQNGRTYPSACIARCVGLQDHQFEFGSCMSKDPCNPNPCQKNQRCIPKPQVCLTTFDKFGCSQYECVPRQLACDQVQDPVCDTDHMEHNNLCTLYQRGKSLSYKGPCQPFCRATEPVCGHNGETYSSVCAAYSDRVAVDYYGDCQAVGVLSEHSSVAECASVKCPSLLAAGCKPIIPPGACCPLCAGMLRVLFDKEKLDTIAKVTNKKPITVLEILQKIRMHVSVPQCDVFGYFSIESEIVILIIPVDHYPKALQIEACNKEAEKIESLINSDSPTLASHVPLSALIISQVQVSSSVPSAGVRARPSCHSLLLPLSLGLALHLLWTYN
B4: Zinc finger protein 774 (Homo sapiens), Q6NX45 (parent)
chain: MWLGTSGKSGLPGHCLENPLQECHPAQLEEWALKGISRPSVISQPEQKEEPWVLPLQNFEARKIPRESHTDCEHQVAKLNQDNSETAEQCGTSSERTNKDLSHTLSWGGNWEQGLELEGQHGTLPGEGQLESFSQERDLNKLLDGYVGEKPMCAECGKSFNQSSYLIRHLRTHTGERPYTCIECGKGFKQSSDLVTHRRTHTGEKPYQCKGCEKKFSDSSTLIKHQRTHTGERPYECPECGKTFGRKPHLIMHQRTHTGEKPYACLECHKSFSRSSNFITHQRTHTGVKPYRCNDCGESFSQSSDLIKHQRTHTGERPFKCPECGKGFRDSSHFVAHMSTHSGERPFSCPDCHKSFSQSSHLVTHQRTHTGERPFKCENCGKGFADSSALIKHQRIHTGERPYKCGECGKSFNQSSHFITHQRIHLGDRPYRCPECGKTFNQRSHFLTHQRTHTGEKPFHCSKCNKSFRQKAHLLCHQNTHLI
B5: MYG1 exonuclease (Homo sapiens), Q9HB07 (parent)
chain: MGHRFLRGLLTLLLPPPPLYTRHRMLGPESVPPPKRSRSKLMAPPRIGTHNGTFHCDEALACALLRLLPEYRDAEIVRTRDPEKLASCDIVVDVGGEYDPRRHRYDHHQRSFTETMSSLSPGKPWQTKLSSAGLIYLHFGHKLLAQLLGTSEEDSMVGTLYDKMYENFVEEVDAVDNGISQWAEGEPRYALTTTLSARVARLNPTWNHPDQDTEAGFKRAMDLVQEEFLQRLDFYQHSWLPARALVEEALAQRFQVDPSGEIVELAKGACPWKEHLYHLESGLSPPVAIFFVIYTDQAGQWRIQCVPKEPHSFQSRLPLPEPWRGLRDEALDQVSGIPGCIFVHASGFIGGHRTREGALSMARATLAQRSYLPQIS
B6: Chorion-specific transcription factor GCMb (Homo sapiens), O75603 (parent)
chain: MPAAAVQEAVGVCSYGMQLSWDINDPQMPQELALFDQFREWPDGYVRFIYSSDEKKAQRHLSGWAMRNTNNHNGHILKKSCLGVVVCTQACTLPDGSRLQLRPAICDKARLKQQKKACPNCHSALELIPCRGHSGYPVTNFWRLDGNAIFFQAKGVHDHPRPESKSETEARRSAIKRQMASFYQPQKKRIRESEAEENQDSSGHFSNIPPLENPEDFDIVTETSFPIPGQPCPSFPKSDVYKATCDLATFQGDKMPPFQKYSSPRIYLPRPPCSYELANPGYTNSSPYPTLYKDSTSIPNDTDWVHLNTLQCNVNSYSSYERSFDFTNKQHGWKPALGKPSLVERTNHGQFQAMATRPYYNPELPCRYLTTPPPGAPALQTVITTTTKVSYQAYQPPAMKYSDSVREVKSLSSCNYAPEDTGMSVYPEPWGPPVTVTRAASPSGPPPMKIAGDCRAIRPTVAIPHEPVSSRTDEAETWDVCLSGLGSAVSYSDRVGPFFTYNNEDF

Variants of: B1
Details: with pram_human PRAM1, Q96QH2
pram_human PRAM1, Q96QH2, sequence (Q96QH2 whole entry): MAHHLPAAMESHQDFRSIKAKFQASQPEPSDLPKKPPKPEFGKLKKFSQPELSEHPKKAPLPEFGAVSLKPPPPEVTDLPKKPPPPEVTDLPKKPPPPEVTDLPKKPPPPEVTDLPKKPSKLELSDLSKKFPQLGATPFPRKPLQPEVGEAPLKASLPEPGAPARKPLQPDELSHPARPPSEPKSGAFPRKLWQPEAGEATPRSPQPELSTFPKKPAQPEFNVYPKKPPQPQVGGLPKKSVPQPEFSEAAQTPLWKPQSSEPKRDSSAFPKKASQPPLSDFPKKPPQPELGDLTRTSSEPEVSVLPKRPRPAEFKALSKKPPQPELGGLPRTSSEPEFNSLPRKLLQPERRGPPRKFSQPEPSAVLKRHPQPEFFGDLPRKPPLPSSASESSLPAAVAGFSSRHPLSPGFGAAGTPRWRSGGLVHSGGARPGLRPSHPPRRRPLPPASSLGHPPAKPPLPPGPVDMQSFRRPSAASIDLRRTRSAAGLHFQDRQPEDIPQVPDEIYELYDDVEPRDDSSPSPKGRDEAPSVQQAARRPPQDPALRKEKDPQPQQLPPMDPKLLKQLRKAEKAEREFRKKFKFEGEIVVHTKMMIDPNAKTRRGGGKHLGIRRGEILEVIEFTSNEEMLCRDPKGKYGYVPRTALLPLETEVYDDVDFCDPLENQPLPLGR

| Variant | effect of a mutation on the interaction |
| --- | --- |
| G161S | with no effect |

Variants of: B2
Details: with gemi7_human GEMIN7, Q9H840
gemi7_human GEMIN7, Q9H840, sequence (Q9H840 whole entry): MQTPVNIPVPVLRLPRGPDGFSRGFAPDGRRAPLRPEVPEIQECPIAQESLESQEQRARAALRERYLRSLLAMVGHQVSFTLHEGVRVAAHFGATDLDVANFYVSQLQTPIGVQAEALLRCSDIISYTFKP

| Variant | effect of a mutation on the interaction |
| --- | --- |
| G8S | with no effect |
| S25N | with no effect |
| V57L | with no effect |
| C91G | with no effect |

Variants of: B3
Details: with reck_human RECK

| Variant | effect of a mutation on the interaction |
| --- | --- |
| R64W | with no effect |
| R82C | with no effect |
| S100G | with no effect |
| A80V | with no effect |

More lines, now with the values ahead:

| effect of a mutation on the interaction | Variant |
| --- | --- |
| with no effect | R255C |
| disrupting interaction strength | I404T |
| with no effect | M374V |
| with no effect | D403N |
| with no effect | M374T |
| with no effect | C272S |

Variants of: B4
Details: with trim1_human MID2, Q9UJV3
trim1_human MID2, Q9UJV3, sequence (Q9UJV3 whole entry): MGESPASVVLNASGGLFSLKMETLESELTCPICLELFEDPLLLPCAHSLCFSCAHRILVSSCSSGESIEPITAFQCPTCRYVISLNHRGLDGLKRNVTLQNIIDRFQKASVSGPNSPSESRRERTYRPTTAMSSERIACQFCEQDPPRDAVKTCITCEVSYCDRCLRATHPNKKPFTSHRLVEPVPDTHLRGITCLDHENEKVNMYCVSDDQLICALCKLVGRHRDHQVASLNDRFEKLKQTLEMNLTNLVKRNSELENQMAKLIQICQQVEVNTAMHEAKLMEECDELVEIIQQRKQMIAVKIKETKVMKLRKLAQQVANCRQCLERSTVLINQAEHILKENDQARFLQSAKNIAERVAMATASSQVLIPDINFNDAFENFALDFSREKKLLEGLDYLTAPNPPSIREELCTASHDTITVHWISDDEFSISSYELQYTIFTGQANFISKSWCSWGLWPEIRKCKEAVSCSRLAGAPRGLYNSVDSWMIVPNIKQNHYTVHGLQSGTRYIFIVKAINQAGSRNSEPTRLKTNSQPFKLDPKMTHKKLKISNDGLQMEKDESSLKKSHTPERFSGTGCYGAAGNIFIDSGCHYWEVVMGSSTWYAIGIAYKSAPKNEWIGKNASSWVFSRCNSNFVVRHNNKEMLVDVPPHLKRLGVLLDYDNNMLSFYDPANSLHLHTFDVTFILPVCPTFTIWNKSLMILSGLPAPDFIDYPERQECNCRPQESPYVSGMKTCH

| Variant | effect of a mutation on the interaction |
| --- | --- |
| P65L | with no effect |

Variants of: B4
Details: with ldoc1_human LDOC1, O95751
ldoc1_human LDOC1, O95751, sequence (O95751 whole entry): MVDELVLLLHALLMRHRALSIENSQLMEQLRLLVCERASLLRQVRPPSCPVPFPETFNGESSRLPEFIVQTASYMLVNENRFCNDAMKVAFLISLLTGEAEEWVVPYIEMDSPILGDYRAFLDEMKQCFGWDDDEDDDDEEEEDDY

| Variant | effect of a mutation on the interaction |
| --- | --- |
| V147I | with no effect |
| E183A | with no effect |
| R469C | disrupting interaction strength |

Variants of: B5
Details: with atrap_human AGTRAP

| Variant | effect of a mutation on the interaction |
| --- | --- |
| R188Q | with no effect |
| R243Q | with no effect |

Variants of: B6
Details: with crx_human CRX

| Variant | effect of a mutation on the interaction |
| --- | --- |
| D53N | with no effect |

Variants of: B6
Details: with fhl3_human FHL3, Q13643
fhl3_human FHL3, Q13643, sequence (Q13643 whole entry): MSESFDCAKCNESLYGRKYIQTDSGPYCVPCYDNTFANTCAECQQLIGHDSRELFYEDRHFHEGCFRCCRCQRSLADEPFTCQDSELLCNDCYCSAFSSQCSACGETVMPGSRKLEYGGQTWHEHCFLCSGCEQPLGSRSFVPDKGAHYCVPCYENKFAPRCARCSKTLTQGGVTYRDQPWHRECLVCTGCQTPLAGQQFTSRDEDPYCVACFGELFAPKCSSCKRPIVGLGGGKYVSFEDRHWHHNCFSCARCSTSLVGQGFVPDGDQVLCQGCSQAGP

| Variant | effect of a mutation on the interaction |
| --- | --- |
| D53N | with no effect |

Variants of: B6
Details: with rbpms_human RBPMS

| Variant | effect of a mutation on the interaction |
| --- | --- |
| D53N | with no effect |
